The text below walks through data of patent US20140072558A1 (ANTIBODY AND RECEPTOR THERAPEUTICS, published 2014).

T1: FLAG-tagged water-soluble DLK1 (Homo sapiens (Human), UniProt P80370 25-302)
T1 construct: also called FLAG-DLK1; not shown: FLAG tag
T1 sequence: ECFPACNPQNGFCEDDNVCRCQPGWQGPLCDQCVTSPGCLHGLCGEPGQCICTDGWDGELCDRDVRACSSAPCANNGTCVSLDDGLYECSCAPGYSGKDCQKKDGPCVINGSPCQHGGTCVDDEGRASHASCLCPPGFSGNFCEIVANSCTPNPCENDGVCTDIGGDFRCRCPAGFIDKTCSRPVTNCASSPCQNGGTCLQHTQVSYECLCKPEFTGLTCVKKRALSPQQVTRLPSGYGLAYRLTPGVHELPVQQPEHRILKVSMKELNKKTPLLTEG

B1: DLK1-Fc fusion protein (Fc fusion)
chain: T1 sequence
notes: Water-soluble DLK1 joined to a human antibody Fc region; also called DLK1-Fc-FITC; not shown: human antibody Fc region
B2: ACVR1A-Fc (Fc fusion, UniProt Q04771 21-123, looked up)
chain: MEDEKPKVNPKLYMCVCEGLSCGNEDHCEGQQCFSSLSINDGFHVYQKGCFQVYEQGKMTCKTPPSPGQAVECCQGDWCNRNITAQLPTKGKSFPGTQNFHLE
notes: Control protein; not shown: Fc
B3: DLK1A10 (scFv, V domains shown)
VH: QVQLVESGGGLVQPGRSLRLSCAASGFTFDDYAMHWVRQAPGKGLEWVSGISWNSGSIGYADSVKGRFTISRDNAKNSLYLQMNSLRAEDTAVYYCARGPGLATGKGYADYWGQGTLVTVSS
VL: DIQMTQSPSSVSASVGDRVTITCRASQRISSWLAWYQQKPGRAPKLLIHSASTLHNGVPSRFSGSASGTDFTLTISSLQPEDYAIYYCQQGHSFPYTFGQGTKLEIK
notes: Monoclonal scFv on phage; VH3-9
B4: DLK1A04 (scFv, V domains shown)
VH: QVQLVESGAEVKKPGASVKVSCKASGYTFKDYAIHWVRQAPGQRLEWMGWINPGSGNTKYSHNFEGRVILTRDASANTAYLELPSLRSEDTAVYYCARSVSAYGSNYFDPWGQGTLITVSS
VL: DIQMTQSPSSLSASVGDRVTITCQASQDISNYLNWYQQKPGKAPKLLIYSTSNLQSGVPSRFSGSGSGTDFTLTISSLQPEDFATYYCQQLNSYPLTFGGGTKVDIK
notes: Monoclonal scFv on phage; VH1-3, L8
B5: ACVR2B-Fc (Fc fusion, UniProt Q13705 19-137, looked up)
chain: SGRGEAETRECIYYNANWELERTNQSGLERCEGEQDKRLHCYASWRNSSGTIELVKKGCWLDDFNCYDRQECVATEENPQVYFCCCEGNFCNERFTHLPEAGGPEVTYEPPPTAPTLLT
notes: extracellular domain; Prepared by attaching Fc to an extracellular part of ACVR2B; not shown: Fc
B6: DLK1H12 (scFv, V domains shown)
VH: QVQLVQSGGGLVKPGGSLRLSCAASEFTFSDYYMSWVRQAPGKGLEWLSYISGSGITTYYADSVKGRFTISRDNGKKSLYLEMNSLRAEDTAVYYCARLQGHCSGGACSNWFDAWGQGTLITVSS
VL: DIQMTQSPSSLSASVGDRLTITCRASQSILTYLNWYQQKPGKAPKLLIYAASSLQRGVPSRFSGSGSGTDFTLTISGLQPEDFATYYCQQGYGTPYTFGQGTKVDIK
notes: Monoclonal scFv on phage; VH3-11, O12
B7: DLK1A05 (scFv, V domains shown)
VH: QMQLVESGGGLVQPGRSLRLSCAASGFTFDEHAMHWVRQAPGKGLEWVSGINWNSGKTGYADSVKGRFTISRDNGKNSLYLQMNSLRAEDTAVYYCAKSGGYGGNTNWYFDLWGRGTLVTVSS
VL: QFVLTQPPSVSGAPGQNVTISCIGTSSNIGVGYDVHWYQQVPGTAPKLLVYGNNNRPSGVPDRFSGSKSGTSASLAITGLQAEDEADYYCQSYDSRLGVVFGGGTKLTVL
notes: Monoclonal scFv on phage; VH3-9, V1-13
B8: activin A (ligand, UniProt P08476 311-426, looked up)
chain: GLECDGKVNICCKKQFFVSFKDIGWNDWIIAPSGYHANYCEGECPSHIAGTSGSSLSFHSTVINHYRMRGHSPFANLKSCCVPTKLRPMSMLYYDDGQNIIKKDIQNMIVEECGCS
notes: also called ligand of ACVR2B
B9: DLK1H06 (scFv, V domains shown)
VH: QVQLVQSGGGLIQPGGSLRLSCAASGFTFSLYGMSWVRQAPGKGLEWVSSIPGSGTRTHYADSVKGRFTISRDNSKNTLFLQMNSLRAEDTAVYYCAKSTAYLFDYWGPGTLVTVSS
VL: DIQMTQSPATLSLSPGERATLSCRASQSIRHYLAWYQQKPGQAPRLLIHGASSRATGIPDRFSGSGSGTDFTLTISRLEPEDFAVYYCQHYGSPLHSFGPGTKVEIK
notes: Monoclonal scFv on phage; VH3-23, A27
B10: DLK1B09 (scFv, V domains shown)
VH: QMQLVESGGRLVRPGGSLRLSCAASGFPFTSYAMNWVRQTPGKGLEWVSTITATSGKTYYADSVKGRFTISRDNSRNTLFLQMNSLRAEDTAVYYCVRGESCSGGACSDFDYWGQGALVTVSS
VL: QLVLTQPASVSGSPGQSVTISCTGTSSDIGRYNRVSWYQHHPGKAPKLILNDVTTRPSGFSNRFSGSKSGNTASLTISGLQAEDEADYSCGSYAGSYTYVFGTGTKVTVL
notes: Monoclonal scFv on phage; VH3-23, V1-4; also called B09 (phage clone)

The target in assay [1] is T2, activin receptor type II B (ACVR2B) expressed in cells (UniProt Q13705 19-512, limits assumed).
T2 construct: whole, on cells; also called ACVR2B-overexpressed cell line
The assay is described as follows: flow cytometry, 1 ug DLK1-Fc-FITC on 293E cells. Here is the method:
To confirm binding between water-soluble DLK1 and ACVR2B on actual cells, an experiment was performed using flow cytometry. The experiment was performed using CantoII (BD), and an experiment method was summarized as follows. […] The harvested cells were washed with cold DPBS twice, 1 μg of DLK1-Fc-FITC was added to react at 4° C. for 2 hours. DLK1-Fc-FITC used in the reaction was manufactured using a protein FITC labeling kit (Pierce). After the reaction, washing with 1% PBA (1% BSA in DPBS) buffer was performed, a degree of binding was determined by flow cytometry, and the results are shown in FIG. 15. In addition, the cells used above were subjected to western blotting to confirm the expression of ACVR2B (FIG. 14).

Assay [2] has as its target B8. In words: ELISA: activin A coated 50 ng/ml. The procedure: To examine whether water-soluble DLK1 competitively bind to the ACVR2B receptor with activin A, enzyme immunoassay was performed. 50 ng/ml of activin A was coated and reacted with ACVR2B-Fc and FLAG-DLK1, and then the binding was detected. Here, ACVR2B was fixed to a concentration of 2 nM, FLAG-DLK1 was treated to have a concentration of 1 to 16 nM, and then a degree of competitive binding was measured. As controls, Fc and ACVR1A-Fc not binding to activin A were used.

The target of assay [3] is B1. The assay is described as follows: scFv-phage ELISA; OD on DLK1 divided by OD on a-myc.
The target of assay [4] is T1, FLAG-tagged water-soluble DLK1. In words: ELISA. Here is the method:
(§1) Binding between ACVR2B and water-soluble DLK1 was confirmed by enzyme immunoassay (ELISA). To this end, 1 μg/ml of FLAG-tagged water-soluble DLK1 was coated on an immunoplate (Nunc) at 4° C. for 16 hours. Here, as a control for detecting non-specific binding, BSA was used. The coated plate was washed with PBST (0.05% Tween 20) three times, and blocked with 5% skim milk PBST. ACVR2B-Fc prepared by attaching Fc to an extracellular part of ACVR2B was subjected to serial dilution, and reacted at room temperature for 1 hour. After the reaction, the cells were washed with PBST (0.05% Tween 20) three times, and […] (1:5000) was incubated for 1 hour to measure a binding degree. After the reaction, the cells were washed with PBST (0.05% Tween 20) three times, a color reaction was performed using TMB (Sigma), and 2.5 M H₂SO₄ was added to stop the reaction. And then optical density was measured at 450 nm.
On the technique in general: ELISA stands for enzyme-linked immunosorbent assay.

Assay [5] concerns the target BSA (UniProt P02769 25-607). In words: ELISA: BSA coated as control for non-specific binding, ACVR2B-Fc serially diluted, anti-human IgG-HRP. Here is the method:
as §1

Assay [6] concerns the target B1. In words: ELISA: activin A coated, DLK1-Fc added.

Chain of BSA (P02769 25-607 limits assumed): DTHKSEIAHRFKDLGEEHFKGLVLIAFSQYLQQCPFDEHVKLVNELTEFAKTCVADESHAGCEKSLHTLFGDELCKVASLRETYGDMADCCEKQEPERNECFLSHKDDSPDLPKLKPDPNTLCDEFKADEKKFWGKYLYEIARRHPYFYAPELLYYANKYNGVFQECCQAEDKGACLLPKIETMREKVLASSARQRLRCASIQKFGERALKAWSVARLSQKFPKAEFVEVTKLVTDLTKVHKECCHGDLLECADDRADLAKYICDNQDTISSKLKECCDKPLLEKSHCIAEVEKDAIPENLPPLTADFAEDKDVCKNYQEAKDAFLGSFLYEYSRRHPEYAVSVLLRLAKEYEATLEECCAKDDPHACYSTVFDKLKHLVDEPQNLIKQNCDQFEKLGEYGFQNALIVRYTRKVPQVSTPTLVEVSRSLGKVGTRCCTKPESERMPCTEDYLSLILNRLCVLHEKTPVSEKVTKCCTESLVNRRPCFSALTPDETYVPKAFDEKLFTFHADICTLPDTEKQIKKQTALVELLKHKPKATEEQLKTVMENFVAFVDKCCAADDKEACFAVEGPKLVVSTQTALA

With B1, in assay [1], the binding result was “binds”. In the case of B2, the binding result in assay [2] is listed as “no binding”. Regarding B3, the Ratio in assay [3] was 2.21. On the same count and under the same terms, the result for B4 reads 6.15.

In the case of B5, the binding result is given as “binds” in assay [4] and “no binding” in assay [5].

Take B6: the Ratio in assay [3] was found to be 4.75. Consider B7, for which the Ratio in assay [3] is 3.81.

B8: the binding result in assay [6] is given as “no binding”.

B9: the Ratio in assay [3] was 2.47. On the same count and under the same terms, the result for B10 reads 25.3.
